Test results as given in the supplement of paper PMC10567573.
± gives the standard deviation.

Experiment: protein stability index of a GFP-peptide fusion (GPS, HEK-293T) (PSI 1-6); higher = more stable
[1] = treatment: DMSO, c terminus: a fixed tail appended
[2] = treatment: MLN4924 1 uM, 8 h, c terminus: a fixed tail appended
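Further: 24-mer peptide tiles fused after GFP, lentivirally expressed, FACS-sorted into six equal bins by GFP/DsRed ratio, decoded by Illumina sequencing, PSI is the read-weighted mean bin number.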

Sequence | protein stability index [1] | protein stability index [2] | protein stability index (treatment: DMSO, c terminus: native) | protein stability index (treatment: MLN4924 1 uM, 8 h, c terminus: native)
MMPLAEAGALAQGGGPSATEWACI [C6orf223] | 3.65 ± 0.34 | 3.52 ± 0.25 | – | –
IEKEEQEKKRKEEEERRRREEEER [ACBD3] | 5.48 ± 0.21 | 5.66 ± 0.097 | – | –
AYSGNTSNLSYHLEKNHPEEFCEF [ZBED1] | 3.63 ± 0.38 | 3.55 ± 0.48 | – | –
RRFGAVACGVAMELYVFGGVRSRE [GAN] | 3.04 ± 0.79 | 2.26 ± 0.15 | – | –
LQDLQVTDILPQMITLSEAYIQIW [USP39] | 2.58 ± 0.54 | 2.55 ± 0.77 | – | –
NKYMVTDGAAYIGNFDWVGNDFTQ [PLD5] | 2.87 ± 0.25 | 2.62 ± 0.3 | – | –
LHAELCQAGSSQGLSLCQFQNFSL [LPCAT4] | 2.42 ± 0.33 | 2.21 ± 0.13 | – | –
VNNYTNSFGGEWSAPDTMKRYSMY [TRIM29] | 2.32 ± 0.19 | 2.62 ± 0.3 | – | –
ALLHQAETLQPSVWFGGREHVLMF [TMEM175] | 2.28 ± 0.51 | 1.95 ± 0.5 | – | –
HTLLNELERNPNGVADGVIKSVLW [CDKL4] | 2.58 ± 0.49 | 2.7 ± 0.4 | – | –
SGVSDYDYLDLDKMSLYSEADSGY [TRIM9] | 4.14 ± 0.19 | 3.76 ± 0.46 | – | –
PSLQPSRKLSPTEPKNYGSYSTQA [SCAMP3] | 4.4 ± 0.35 | 4.5 ± 0.22 | – | –
QLLCPWAPLSGPQALMLPPGSFWG [VENTX] | 2.41 ± 0.62 | 1.73 ± 0.35 | – | –
LLSQEKLQEQHLSSPQGVQLDIAS [BCL2L13] | 4.45 ± 0.14 | 4.36 ± 0.15 | – | –
SYRPAYDQGGPVEILPFLYLGSAY [DUSP5] | 2.08 ± 0.33 | 2.18 ± 0.32 | – | –
AMEAVRVNPLHVDSTWLLLRRIRA [SLC25A39] | 2.66 ± 0.41 | 2.81 ± 0.19 | – | –
LLQKYNMQFLIRSHECKPEGYEFC [PPEF2] | 2.5 ± 0.84 | 2.27 ± 0.49 | – | –
SAVVQLYAADRNCMWSKKCSGVAC [WASL] | 2.36 ± 0.23 | 2.41 ± 0.42 | – | –
SDLLSEFKKHDADKVGLITLSDWA [PPEF2] | 3.35 ± 0.47 | 3.44 ± 0.27 | – | –
QQYAAQQYPGNYEQQQILIRQLQE [ACBD3] | 4.07 ± 0.19 | 4.06 ± 0.22 | – | –
SWGIAGETELALVKESGERKVTDS [DLC1] | 5.14 ± 0.3 | 5.46 ± 0.19 | – | –
TLLNPRMIVDVTPYMNPSPFTVSP [CLCN6] | 2.32 ± 0.079 | 2.25 ± 0.081 | – | –
TTPIEEVKGLFKSENCPKVISCEF [LARP4] | 2.9 ± 0.2 | 2.82 ± 0.36 | – | –

Sequence | protein stability index [1] | protein stability index [2] | protein stability index (treatment: DMSO, c terminus: native) | protein stability index (treatment: MLN4924 1 uM, 8 h, c terminus: native)
NNADLCLTDDKQVLNTQGQKTSGQ [DLC1] | 5.18 ± 0.27 | 5.16 ± 0.23 | – | –
KEENEAESDVKHRTRDYKKTSLAP [PRIM1] | 5.37 ± 0.23 | 5.37 ± 0.41 | – | –
HSQNLAKQQRNEVSFVIHNLPIIA [SEPHS2] | 2.14 ± 0.089 | 2.25 ± 0.22 | – | –
VPDVKEMEKSSFTEYIESPDVENE [TAF7L] | 5.59 ± 0.17 | 5.61 ± 0.23 | – | –
VIDGRNVTVTDVDIVFSKIKGKSC [TPPP] | 2.6 ± 0.3 | 2.75 ± 0.41 | – | –
TVAIGAESEVYSWGKGARGRLGRR [NEK8] | 4.08 ± 0.16 | 4.14 ± 0.15 | – | –
STCFERPCFKWYTSPWSECTKTCG [ADAMTSL2] | 2.47 ± 0.64 | 2.75 ± 0.57 | – | –
FTETNNHWPQGPTGPPGPPGPMGP [EMID1] | 2.58 ± 0.28 | 3.4 ± 0.5 | – | –
DPQSGELPSERWNPTQNVRTILLS [CDC34] | 3.31 ± 0.35 | 3.62 ± 0.43 | – | –
AARAAGRDVAAEAVARSPKRPAWG [POMT2] | 4.1 ± 0.29 | 4.29 ± 0.51 | – | –
CASDEGEVIVFGGCANNLLVHHRA [KLHDC2] | 2.6 ± 0.35 | 2.27 ± 0.29 | – | –
MEGLEENGGVVQVGELLPCKICGR [ZC2HC1A] | 4.13 ± 0.21 | 4.26 ± 0.48 | – | –
SHAAPGPSPDSWVPRPGTPQSPPS [FCHO1] | 5.12 ± 0.47 | 5.05 ± 0.62 | – | –
ELEMIGFIENNVSKLSLLLNDISR [TRIP13] | 2.2 ± 0.31 | 2.63 ± 0.41 | – | –
GLRAGFSSTSYRRTFGPPPSLSPG [PRPH] | 2.62 ± 0.24 | 2.93 ± 0.15 | – | –
FVSAGAAAGVAAAFGAPIGGTLFS [CLCN6] | 2.8 ± 0.48 | 2.46 ± 0.21 | – | –
QLVVMHPTPQVDELDILPIHPPSG [BTBD10] | 3.74 ± 0.1 | 3.75 ± 0.11 | – | –
PPHICWDETHFGKMGSYYINRTFF [POMT2] | 2.1 ± 0.44 | 2.23 ± 0.4 | – | –
PRPPSNPPARGTLKTSNLPEELRK [TRAF3IP2] | 4.71 ± 0.2 | 4.79 ± 0.3 | – | –
TPINQNVSLHQASLGGCSQDFLLF [NFE2L1] | 1.99 ± 0.55 | 2.6 ± 0.58 | – | –
NTNNLTFLMDLPSAGRSMPEASDQ [RNF180] | 4.28 ± 0.14 | 4.39 ± 0.2 | – | –
FERIMKYERLARILLQEIPIRSIS [FBXO39] | 2.73 ± 0.39 | 2.35 ± 0.4 | – | –
EDLLAKEKDNSRRMLTDKEREMAE [LMNB1] | 5.6 ± 0.31 | 5.65 ± 0.28 | – | –

Sequence | protein stability index [1] | protein stability index [2] | protein stability index (treatment: DMSO, c terminus: native) | protein stability index (treatment: MLN4924 1 uM, 8 h, c terminus: native)
HKPLLICSCEWMAAMFGGSFVESA [RHOBTB1] | 2.72 ± 0.79 | 2.46 ± 0.85 | – | –
GPIGGMMPPQPGIPQQQGMRPPMP [ZNF207] | 4.35 ± 0.3 | 4.36 ± 0.27 | – | –
DLKQALPCVAESPTVHVEVHQRGS [TRIP13] | 4.51 ± 0.31 | 4.57 ± 0.11 | – | –
IWKLNLQTFQWVKLPATMPEPVYF [KLHDC10] | 2.82 ± 0.7 | 2.63 ± 0.33 | – | –
AGGIRESKESSKEKKLTVRQDLED [C22orf31] | 5.56 ± 0.12 | 5.48 ± 0.3 | – | –
ALEQREQDAVDQVKVIMDALDERA [TRIM29] | 5.33 ± 0.097 | 5.31 ± 0.29 | – | –
LVVADDKMAAFHGAGLKRYLLTVM [ADAMTS4] | 2.72 ± 0.63 | 2.35 ± 0.61 | – | –
SPNTPQPVPEQSALCQGLYFHINQ [FAM104A] | 3 ± 0.15 | 3.16 ± 0.33 | – | –
AQRVKEVLPHVPLGVIQRDLAKTG [AUP1] | 3.81 ± 0.42 | 3.85 ± 0.17 | – | –
NHSLETCETTLFALRMATWNQILD [PTGFR] | 2.25 ± 0.52 | 2 ± 0.27 | – | –
IVGFGLYGSIHGPTDYQVNIQIIE [BTBD1] | 2.63 ± 0.4 | 2.6 ± 0.47 | – | –
NFNPLLVAGGVAVAAIALILGVAF [CEND1] | 3.24 ± 0.27 | 3.47 ± 0.22 | – | –
PNCLSMGSRCLKTFEVPEENTAET [ZBED1] | 4.89 ± 0.39 | 4.93 ± 0.15 | – | –
MPLREGSSFQDLLGDALAGPPRAP [HES6] | 3.86 ± 0.34 | 4.05 ± 0.4 | – | –
TSASFGEESTPGQTNSETAVVALT [HDAC6] | 4.714 ± 0.027 | 5.05 ± 0.19 | – | –
LEGKTFYSKKDRPLCKSHAFSHV [PDLIM7] | – | – | 3.36 ± 0.44 | 3.83 ± 0.75
HLSSPAKNFFKKAAAALFGGKKDK [PLK2] | 2.16 ± 0.49 | 2.53 ± 0.55 | – | –
NDTAGPELPDPLGGLLDEAMLDEI [NFE2L1] | 5.22 ± 0.41 | 5.6 ± 0.13 | – | –
LQLKQELAMLNAVTEDLRLKDWEH [SCARA5] | 3.36 ± 0.046 | 3.34 ± 0.24 | – | –
SSPKFREEAAFPGRRVNAKMPVYS [ELOA2] | 3.3 ± 0.17 | 3.48 ± 0.14 | – | –
MATSELSCEVSEENCERREAFWAE [TCAP] | 5.07 ± 0.079 | 5.08 ± 0.32 | – | –
RGSVARPTQGPETPRSPEGTTEAA [PXN] | 5.39 ± 0.3 | 5.31 ± 0.17 | – | –
VGKGEILESLQDGAAESPYAYSNG [RAB40C] | 4.88 ± 0.24 | 4.79 ± 0.2 | – | –

Sequence | protein stability index [1] | protein stability index [2] | protein stability index (treatment: DMSO, c terminus: native) | protein stability index (treatment: MLN4924 1 uM, 8 h, c terminus: native)
RADAHLGSSSVALPKEASDGTGAS [TOR1AIP2] | 5.5 ± 0.24 | 5.33 ± 0.12 | – | –
DVARQLGKNNEFSRLVAGEYLSFF [PSD2] | 2.26 ± 0.16 | 2.27 ± 0.44 | – | –
DSMPQDLSEALKEATKEVHTQAEN [HMOX1] | 5.39 ± 0.26 | 5.51 ± 0.19 | – | –
TQKFTDMVATANNRQTFVNSAIRF [CHIT1] | 2.85 ± 0.32 | 3.17 ± 0.33 | – | –
KLSETFLQIYQYVPKDQRLQAIKA [DLC1] | 2.12 ± 0.38 | 2.28 ± 0.44 | – | –
IILTATDGLFDNMPDYMILQELKK [PPTC7] | 2.31 ± 0.32 | 2.22 ± 0.19 | – | –
LQSGQEYVFFVLAVMEHAESKMYA [PTPRD] | 2.4 ± 0.63 | 2.51 ± 0.75 | – | –
KAKPEPDILEEEKIYAYPSNITSE [TMEM192] | 4.82 ± 0.2 | 4.83 ± 0.2 | – | –
FQVVKDAVLDCLLDFLPKDVKKEK [TENT5D] | 5.16 ± 0.18 | 4.95 ± 0.23 | – | –
QGCPGAKKHEFLTSVLDALSTDMV [SMOC2] | 2.68 ± 0.26 | 3.07 ± 0.27 | – | –
ESFTMDDMSWTCGNQDYKYRVSDV [VDR] | 3.08 ± 0.27 | 2.94 ± 0.13 | – | –
KVVECLDHARGKSQVALKIIRNVG [CLK3] | 2.24 ± 0.21 | 2.22 ± 0.36 | – | –
CRLTHIPAYKVSGDKNEEQVLNAI [ZER1] | 3.5 ± 0.42 | 3.42 ± 0.3 | – | –
HGSPQLGEGMFQHQTSVAHQPVVR [TBX5] | 4.19 ± 0.28 | 4.13 ± 0.17 | – | –
PPPAYEPPAPAPLPPPSAPSLQPS [SCAMP3] | 5.04 ± 0.18 | 4.97 ± 0.11 | – | –
LETRFKIQQLLEPQQYMAFLPHHI [FBXO34] | 2.36 ± 0.49 | 2.27 ± 0.33 | – | –
PGNQAEHGAVTVGGTSVGSLGVPG [ZBTB22] | 4.89 ± 0.25 | 4.75 ± 0.26 | – | –
VFDLPESLGGIRACTLTVFPPEET [KLHL13] | 3.33 ± 0.41 | 3.39 ± 0.37 | – | –
VSYRGAWWYRNCHYANLNGLYGST [TNXB] | 2.49 ± 0.46 | 2.26 ± 0.86 | – | –
QQRSKDLESRQRSLEQANRSLQLR [TFE3] | 4.76 ± 0.062 | 4.655 ± 0.041 | – | –
